± gives the standard deviation of the averaged measurements.
Test: total protein half-life in vivo (active degradation + dilution); higher = more stable protein
[1] = E. coli NCM3722 delta-clpP delta-lon delta-hslV, growth: N-lim chemostat, doubling time 6 h
[2] = E. coli NCM3722 delta-clpP, growth: N-lim chemostat, doubling time 6 h
[3] = E. coli NCM3722 delta-hslV, growth: N-lim chemostat, doubling time 6 h
[4] = E. coli NCM3722 delta-lon, growth: N-lim chemostat, doubling time 6 h
[5] = E. coli NCM3722 delta-smpB, growth: N-lim chemostat, doubling time 6 h
[6] = wild type E. coli NCM3722, growth: C-lim chemostat, doubling time 3 h
[7] = wild type E. coli NCM3722, growth: C-lim chemostat, doubling time 6 h
[8] = wild type E. coli NCM3722, growth: C-lim chemostat, doubling time 12 h
[9] = wild type E. coli NCM3722, growth: N-lim chemostat, doubling time 6 h
[10] = wild type E. coli NCM3722, growth: N-lim chemostat, doubling time 12 h
[11] = wild type E. coli NCM3722, growth: P-lim chemostat, doubling time 6 h
[12] = wild type E. coli NCM3722, growth: P-lim chemostat, doubling time 12 h

Sequence | total protein half-life in vivo [1] [h] | total protein half-life in vivo [2] [h] | total protein half-life in vivo [3] [h] | total protein half-life in vivo [4] [h] | total protein half-life in vivo [5] [h] | total protein half-life in vivo [6] [h] | total protein half-life in vivo [7] [h] | total protein half-life in vivo [8] [h] | total protein half-life in vivo [9] [h] | total protein half-life in vivo [10] [h] | total protein half-life in vivo [11] [h] | total protein half-life in vivo [12] [h]
MGFLSGKRILVTGVASKLSIAYGIAQAMHREGAELAFTYQNDKLKGRVEEFAAQLGSDIVLQCDVAEDASIDTMFAELGKVWPKFDGFVHSIGFAPGDQLDGDYVNAVTREGFKIAHDISSYSFVAMAKACRSMLNPGSALLTLSYLGAERAIPNYNVMGLAKASLEANVRYMANAMGPEGVRVNAISAGPIRTLAASGIKDFRKMLAHCEAVTPIRRTVTIEDVGNSAAFLCSDLSAGISGEVVHVDGGFSIAAMNELELK [P0AEK4] | 5.4 ± 0.09 | 5.37 ± 0.42 | 5.299 ± 0.046 | 5.88 ± 0.25 | 4.97 ± 0.28 | 3.26 ± 0.14 | 5.9 ± 1.1 | 11 ± 1.2 | 5.28 ± 0.18 | 10.2 ± 2 | 6.19 ± 0.08 | 13.74 ± 0.13
MVKTQRVVITPGEPAGIGPDLVVQLAQREWPVELVVCADATLLTNRAAMLGLPLTLRPYSPNSPAQPQTAGTLTLLPVALRAPVTAGQLAVENGHYVVETLARACDGCLNGEFAALITGPVHKGVINDAGIPFTGHTEFFEERSQAKKVVMMLATEELRVALATTHLPLRDIADAITPALLHEVIAILHHDLRTKFGIAEPRILVCGLNPHAGEGGHMGTEEIDTIIPVLNELRAQGMKLNGPLPADTLFQPKYLDNADAVLAMYHDQGLPVLKYQGFGRGVNITLGLPFIRTSVDHGTALELAGRGKADVGSFITALNLAIKMIVNTQ | 4.27 | 3.54 | 3.58 | 4.45 ± 0.1 | 4.72 ± 0.25 | 2.98 ± 0.15 | 5.541 ± 0.046 | 9.78 ± 0.65 | 4.33 | 7.247 ± 0.038 | 4.67 ± 0.49 | 9.91 ± 0.5
MTTKRKPYVRPMTSTWWKKLPFYRFYMLREGTAVPAVWFSIELIFGLFALKNGPEAWAGFVDFLQNPVIVIINLITLAAALLHTKTWFELAPKAANIIVKDEKMGPEPIIKSLWAVTVVATIVILFVALYW [P0A8Q0] | 5.7 ± 0.4 | – | 5.78 ± 0.49 | 6.06 ± 0.09 | 6.13 ± 0.39 | 2.81 ± 0.031 | 5.55 ± 0.079 | 10.9 ± 0.46 | 5.63 ± 0.14 | 11.3 ± 1.9 | 5.09 ± 0.12 | 12.5 ± 0.33
MIEFKNVSKHFGPTQVLHNIDLNIAQGEVVVIIGPSGSGKSTLLRCINKLEEITSGDLIVDGLKVNDPKVDERLIRQEAGMVFQQFYLFPHLTALENVMFGPLRVRGANKEEAEKLARELLAKVGLAERAHHYPSELSGGQQQRVAIARALAVKPKMMLFDEPTSALDPELRHEVLKVMQDLAEEGMTMVIVTHEIGFAEKVASRLIFIDKGRIAEDGNPQVLIKNPPSQRLQEFLQHVS | 6.81 ± 0.9 | 5.7293 ± 0.0055 | 5.292 ± 0.039 | 5.12 ± 0.18 | 5.72 ± 0.6 | 2.93 ± 0.62 | 4.88 ± 1.6 | 11.9 ± 0.78 | 6.79 | 11.5 ± 0.64 | 5.25 | 12.5 ± 0.99
MNIENLKTKAEADISEYITKKIIELKKKTGKEVTSIQFTAREKMTGLESYDVKINLI | 6.69 ± 0.78 | 6.7 ± 1.3 | 5.74 ± 0.34 | 6.46 ± 0.88 | 5.57 ± 0.3 | 3.24 ± 0.47 | 5.85 ± 0.45 | 10.6 ± 1.6 | 5.71 ± 0.32 | 13.6 ± 3.4 | 5.4 ± 0.96 | –
MHQVVCATTNPAKIQAILQAFHEIFGEGSCHIASVAVESGVPEQPFGSEETRAGARNRVANARRLLPEADFWVAIEAGIDGDSTFSWVVIENASQRGEARSATLPLPAVILEKVREGEALGPVMSRYTGIDEIGRKEGAIGVFTAGKLTRASVYHQAVILALSPFHNAVY | 4.71 ± 0.46 | 3.828 ± 0.038 | 3.608 ± 0.012 | 4.01 ± 0.27 | 3.57 ± 0.16 | 2.81 ± 0.067 | 5.02 ± 0.2 | 8.17 ± 0.45 | 3.92 | 5.34 ± 0.057 | 5.38 ± 0.72 | 10.9 ± 2
MTTRQHSSFAIVFILGLLAMLMPLSIDMYLPALPVISAQFGVPAGSTQMTLSTYILGFALGQLIYGPMADSFGRKPVVLGGTLVFAAAAVACALANTIDQLIVMRFFHGLAAAAASVVINALMRDIYPKEEFSRMMSFVMLVTTIAPLMAPIVGGWVLVWLSWHYIFWILALAAILASAMIFFLIKETLPPERRQPFHIRTTIGNFAALFRHKRVLSYMLASGFSFAGMFSFLSAGPFVYIEINHVAPENFGYYFALNIVFLFVMTIFNSRFVRRIGALNMFRSGLWIQFIMAAWMVISALLGLGFWSLVVGVAAFVGCVSMVSSNAMAVILDEFPHMAGTASSLAGTFRFGIGAIVGALLSLATFNSAWPMIWSIAFCATSSILFCLYASRPKKR | 7.89 | – | – | – | – | – | – | – | – | – | 6.0641 ± 0.0035 | 11.8

Source: the supplement of paper PMC11246515
